Measured values taken from US20250135039A1, “INHIBITOR-RESISTANT MGMT MODIFICATIONS AND MODIFICATION OF MGMT-ENCODING NUCLEIC ACIDS” (Ensoma, Inc., priority 2022, published 2025).
Positions count from the first letter of the chain named. In names and notes the source's numbering stands.

B1: P140R: MGMT polypeptide with mutation P140R (protein)
chain: MDKDCEMKRTTLDSPLGKLELSGCEQGLHEIKLLGKGTSAADAVEVPAPAAVLGGPEPLMQCTAWLNAYFHQPEAIEEFPVPALHHPVFQQESFTRQVLWKLLKVVKFGEVISYQQLAALAGNPKAARAVGGAMRGNPVRILIPCHRVVCSSGAVGNYSGGLAVKEWLLAHEGHRLGKPGLGGSSGLAGAWLKGAGATSGSPPAGRN
B2: Y158W: MGMT polypeptide with mutation Y158W (protein)
chain: B1 chain with R140P, Y158W
B3: G156P: MGMT polypeptide with mutation G156P (protein)
chain: B1 chain with R140P, G156P
B4: G156A: MGMT polypeptide with mutation G156A (protein)
chain: B1 chain with R140P, G156A
B5: Y158F: MGMT polypeptide with mutation Y158F (protein)
chain: B1 chain with R140P, Y158F
B6: S159F: MGMT polypeptide with mutation S159F (protein)
chain: B1 chain with R140P, S159F
B7: Y158H: MGMT polypeptide with mutation Y158H (protein)
chain: B1 chain with R140P, Y158H
B8: G156V: MGMT polypeptide with mutation G156V (protein)
chain: B1 chain with R140P, G156V
B9: S159W: MGMT polypeptide with mutation S159W (protein)
chain: B1 chain with R140P, S159W
B10: Y158M: MGMT polypeptide with mutation Y158M (protein)
chain: B1 chain with R140P, Y158M
B11: G156I: MGMT polypeptide with mutation G156I (protein)
chain: B1 chain with R140P, G156I
B12: S159I: MGMT polypeptide with mutation S159I (protein)
chain: B1 chain with R140P, S159I

System: U251 human glioblastoma cell line
Experiment: in vitro FM-HCR assay of MGMT activity (mPlum O^6MeG reporter plasmid)
Format: cell-based
Settings: for Reporter expression (%) mean, O^6BG: 100 μM O^6BG; for Reporter expression (%) mean, O^6BG / Reporter expression (%) mean, DMSO: U251 cells, flow cytometry 24 h after transfection, damaged/undamaged reporter, inversely related to MGMT activity; for Reporter expression (%) mean, DMSO: 0.1% DMSO; for MGMT activity (a.u.) DMSO / MGMT activity (% of WT) DMSO: DMSO condition; for MGMT activity (a.u.) DMSO / MGMT activity (a.u.) O^6BG: determined from percent reporter expression; for MGMT activity (% of WT) DMSO / MGMT activity (% of WT) O^6BG: relative to wild-type MGMT in same condition; for Relative MGMT activity (%): MGMT activity (a.u.) in O^6BG divided by DMSO x 100, higher values indicate resistance; for MGMT activity (a.u.) O^6BG / MGMT activity (% of WT) O^6BG: O^6BG condition; for Ratio percent reporter expression (O^6BG/DMSO): lower values indicate resistance to O^6BG; for O^6BG resistance relative to WT (%): percentage difference in relative MGMT activity between variant and wild-type MGMT
Text: The present Example includes, in part, an in vitro fluorescence multiplex host cell reactivation (FM-HCR) assay in which a reporter plasmid with O^6MeG-containing oligonucleotides is used. The oligonucleotides induce transcription errors that lead to expression of fluorescent mPlum protein. Functional MGMT will repair the O^6MeG sites and reduce mPlum expression. This represents a rapid and validated assay system to assess intracellular activity of MGMT. Further description of certain such assays is found in Nagel (2014 PNAS USA 111 (18): E1823-32, which is incorporated herein by reference.
The present Example uses an in vitro FM-HCR assay in which a reporter plasmid with 0° MeG-containing oligonucleotides is used to assay MGMT activity in cells. The O^6MeG-containing oligonucleotides induce transcription errors that lead to expression of fluorescent mPlum protein. Functional MGMT will repair the O'MeG sites and reduce mPlum expression. This represents a rapid and validated assay system to assess intracellular activity of MGMT. Further description of certain such assays is found in Nagel et al., 2014 PNAS USA 111 (18): E1823-32 and Piett et al., 2021 Nat. Protoc. 16 (9): 4265-4298, each of which is incorporated herein by reference.
The in vitro FM-HCR assay was performed using the U251 human glioblastoma cell line. The cells were cultured in DMEM with 10% FBS and passaged every three days.
To express MGMT variants in the cells, plasmids encoding each MGMT variant were designed and generated by either de novo synthesis or cloning into the pTwist EF1 Alpha Puro vector at the HindII-BamHI multiple cloning site. The pTwist EF1 Alpha Puro plasmid vector drives expression of the MGMT transcript from a human EF1-alpha promoter including intron 1 and an SV40 polyadenylation signal. Plasmids encoding the MGMT variants were purified using standard molecular biology techniques from E. coli with low endotoxins. Plasmids encoding wild-type MGMT or O^6BG-resistant MGMT^P140K were also designed and generated for use as controls.
To perform the in vitro FM-HCR assay, U251 cells were seeded in 12-well plates at a density of 50,000 cells per well in 1 mL culture media. The following day, the media was changed to 1 mL of culture media containing O^6BG (100 μM O^6BG and 0.1% DMSO final) or 0.1% DMSO; and the cells were transfected with 1,000 ng of a plasmid cocktail using Lipofectamine 3000 (ThermoFisher Scientific) at 1.8 μL Lipofectamine 3000 Reagent and 2 μL P3000 reagent in Opti-MEM medium (ThermoFisher Scientific). […] For the “undamaged” condition, the plasmid cocktail replaced the mPlum O^6MeG reporter plasmid with 100 ng of a plasmid expressing mPlum. The plasmid encoding BFP was used as an internal transfection control. For transfections where no MGMT encoding plasmid is used (no pMGMT), 250 ng of additional carrier plasmid was used to maintain a total DNA amount of 1,000 ng in each transfection. Four hours after transfection, the transfection medium was changed.
All transfected cells were analyzed by flow cytometry at 24-hours after transfection. Data was analyzed as previously described in Nagel et al., 2014 PNAS USA 111 (18): E1823-32 and Piett et al., 2021 Nat. Protoc. 16 (9): 4265-4298. For each condition, normalized reporter expression was determined by taking the product of the mPlum-positive cell count and the mean mPlum fluorescence intensity in mPlum-positive cells and dividing it by the product of the BFP-positive cell count and the mean BFP fluorescence intensity in BFP-positive cells. Next, for each MGMT variant, the percent reporter expression was determined by taking the normalized reporter expression in the “damaged” condition and dividing it by the normalized reporter expression in the “undamaged” condition, and then multiplying by 100 to obtain a percent value. […]

| Molecule | Reporter expression (%) mean, O^6BG | Reporter expression (%) mean, DMSO | MGMT activity (a.u.) DMSO | MGMT activity (% of WT) DMSO | Relative MGMT activity (%) | MGMT activity (a.u.) O^6BG | MGMT activity (% of WT) O^6BG | Ratio percent reporter expression (O^6BG/DMSO) | O^6BG resistance relative to WT (%) |
| --- | --- | --- | --- | --- | --- | --- | --- | --- | --- |
| B1 | 38.3% | 25.3% | 3.95 a.u. | 73.0 % of WT | 66.1% | 2.61 a.u. | 182.6 % of WT | 1.51 | 150.1% |
| B2 | 86.7% | 26.0% | 3.85 a.u. | 71.2 % of WT | 30.0% | 1.15 a.u. | 80.8 % of WT | 3.33 | 13.5% |
| B3 | 47.3% | 41.0% | 2.44 a.u. | 45.1 % of WT | 86.6% | 2.11 a.u. | 147.9 % of WT | 1.15 | 227.8% |
| B4 | 79.0% | 32.3% | 3.10 a.u. | 57.4 % of WT | 40.8% | 1.27 a.u. | 88.6 % of WT | 2.45 | 54.5% |
| B5 | 61.3% | 12.3% | 8.11 a.u. | 150.0 % of WT | 20.1% | 1.63 a.u. | 114.1 % of WT | 4.97 | −23.9% |
| B6 | 102.7% | 23.0% | 4.35 a.u. | 80.4 % of WT | 22.4% | 0.97 a.u. | 68.2 % of WT | 4.46 | −15.2% |
| B7 | 30.3% | 23.3% | 4.29 a.u. | 79.3 % of WT | 76.9% | 3.30 a.u. | 230.8 % of WT | 1.30 | 191.1% |
| B8 | 55.0% | 36.8% | 2.72 a.u. | 50.3 % of WT | 66.8% | 1.82 a.u. | 127.3 % of WT | 1.50 | 152.8% |
| B9 | 108.0% | 31.3% | 3.19 a.u. | 59.0 % of WT | 29.0% | 0.93 a.u. | 64.8 % of WT | 3.45 | 9.8% |
| B10 | 60.0% | 47.7% | 2.10 a.u. | 38.8 % of WT | 79.4% | 1.67 a.u. | 116.7 % of WT | 1.26 | 200.6% |
| B11 | 54.0% | 42.0% | 2.38 a.u. | 44.0 % of WT | 77.8% | 1.85 a.u. | 129.6 % of WT | 1.29 | 194.3% |
| B12 | 40.3% | 18.0% | 5.56 a.u. | 102.8 % of WT | 44.6% | 2.48 a.u. | 173.6 % of WT | 2.24 | 68.9% |
